Data on 2 molecules can be found in paper PMC10602924.

Targets include SerRS T429A (human, UniProt P49591 1-514, T429A); SerRS WT (human, UniProt P49591 1-514); SerRS deltaUNE-S (human, UniProt P49591 1-469).
Common to all, as to assay: EMSA
In general terms: Mobility shift assays separate free from complexed probe on a gel.

Chain of SerRS WT (P49591 whole entry): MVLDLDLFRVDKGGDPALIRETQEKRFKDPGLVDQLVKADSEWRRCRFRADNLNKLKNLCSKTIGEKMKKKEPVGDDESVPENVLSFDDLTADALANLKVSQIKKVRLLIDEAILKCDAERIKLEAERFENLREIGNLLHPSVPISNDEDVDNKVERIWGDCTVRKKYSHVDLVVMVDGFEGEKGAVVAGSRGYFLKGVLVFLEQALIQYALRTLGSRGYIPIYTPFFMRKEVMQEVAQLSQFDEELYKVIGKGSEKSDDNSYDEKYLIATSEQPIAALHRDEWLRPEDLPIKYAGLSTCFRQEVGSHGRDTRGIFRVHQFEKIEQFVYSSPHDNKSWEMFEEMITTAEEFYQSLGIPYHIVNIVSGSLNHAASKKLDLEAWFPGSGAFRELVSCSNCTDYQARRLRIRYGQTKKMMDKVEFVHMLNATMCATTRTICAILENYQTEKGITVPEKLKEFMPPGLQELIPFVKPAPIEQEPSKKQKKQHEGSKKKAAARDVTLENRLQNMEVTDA
Chain of SerRS deltaUNE-S (P49591 1-469, stated change not applied): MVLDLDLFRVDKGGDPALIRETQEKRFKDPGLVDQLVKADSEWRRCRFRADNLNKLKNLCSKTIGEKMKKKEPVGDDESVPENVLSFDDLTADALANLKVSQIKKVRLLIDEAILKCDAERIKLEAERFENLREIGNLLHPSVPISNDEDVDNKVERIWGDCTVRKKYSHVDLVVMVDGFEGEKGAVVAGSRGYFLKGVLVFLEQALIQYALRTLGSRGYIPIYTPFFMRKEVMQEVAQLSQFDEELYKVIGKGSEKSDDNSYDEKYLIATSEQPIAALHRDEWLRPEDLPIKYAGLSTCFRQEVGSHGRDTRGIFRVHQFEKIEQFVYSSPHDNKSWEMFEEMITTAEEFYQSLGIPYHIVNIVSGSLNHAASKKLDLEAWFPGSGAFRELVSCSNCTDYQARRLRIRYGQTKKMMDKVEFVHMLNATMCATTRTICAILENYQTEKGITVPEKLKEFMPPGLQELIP
Chain of SerRS T429A (P49591 whole entry T429A): as the sequence (P49591 whole entry) above, with T429A counted along it

B1: VEGFA 3'UTR WT RNA (ssRNA)
RNA: UGAGCCGGGCAGGAGGAAGGAGCCUCCCUCAGGGUUUCGGGAACCAGAUCUCUCACCAGGAAAGACUGA
For B1, the binding result in the series with SerRS T429A was “binds”; in the series with SerRS WT, “binds”; in the series with SerRS deltaUNE-S, “no binding”.
In the case of UCAAAUGGAGCACCUGUUCCAUAUGUACGA (ssRNA) [MSH2 S612X RNA], the binding result with SerRS WT is “binds”.
